Measurements reported in the Human Domainome abundance scans (Beltran et al. 2025).

B1: POU domain, class 3, transcription factor 1, residues 247 to 324; numbered along this chain, Q03052 (parent)
chain: EDAPSSDDLEQFAKQFKQRRIKLGFTQADVGLALGTLYGNVFSQTTICRFEALQLSFKNMCKLKPLLNKWLEETDSSS
B2: TOX high mobility group box family member 3, residues 256 to 323; numbered along this chain, O15405 (parent)
chain: QKPVSAYALFFRDTQAAIKGQNPNATFGEVSKIVASMWDSLGEEQKQVYKRKTEAAKKEYLKALAAYR

Variants of: B1
Assay: abundance fitness (aPCA) (normalised: wild type 0, dead -1); higher = more abundant; growth selection in yeast, the domain comes from the species named
Conditions: Homo sapiens

Abundance fitness of substitutions, site by site:
K17: C -0.868; H -0.066; R 0.007; D -0.893; M -0.269; P -0.667; S -0.354; Q 0.035; A -0.178; T -0.001; W -0.879; I 0.048; E -0.8
F12: W -0.362; S -0.544; Q -0.844; E -0.738; V -0.55; T -1.16; C -0.881; P -0.492; L -0.547; R -0.62; A -0.391; G -1.11; I -0.553; N -0.192
Q18: R -0.204; L -0.25; V -0.316; M -0.472; C -0.428; T -0.034; F -0.304; E 0.028; H 0.031; K 0.138; S -0.027; P -1.16; N -0.276; D -0.259; W -0.245; A 0.074; Y -0.824
R19: E -0.36; V -0.586; M 0.023; P -0.79; G -0.495; S -0.232; T -0.04; H -0.456; K 0.259; N -0.071; Q -0.218; W -0.484; I -0.212; L -0.613
P4: D -0.134; G -0.098; Y 0.169; Q -0.24; L -0.031; M 0.032; A 0.008; K -0.114; W 0.066; C 0.126; I 0.13; H 0.002; F -0.366; R -0.229; T 0.019; N -0.403; E -0.043
F16: V -0.515; I -0.532; N -0.713; G -0.572; D -0.83; Q -0.541; A -0.779; K -0.61; L -0.633; W -0.736; E -0.585; M -0.612; R -0.621; P -0.789; T -0.429
S5: P 0.067; Y -0.062; E 0.111; C 0.113; T 0.09; V 0.045; I -0.234; M 0.141; K 0.07; R 0.164; F -0.143; Q 0.042; H 0.283; N 0.119; D 0.388; W -0.206; L 0.129; A 0.048
Q11: Y -0.269; V -0.032; W -0.707; N 0.001; E -0.002; A -0.087; I 0.134; T 0.036; F -0.093; D 0.07; H 0.121; G -0.272; P -0.299; R -0.149; M -0.213; S -0.002; K 0.057; C -0.266
Q15: R -0.047; T -0.112; V -0.078; H -0.075; N 0.301; D 0; A -0.067; F -0.122; W -0.288; S -0.014; M 0.124; I 0.2; E -0.092; P -0.745; K -0.118; L -0.184; G -0.18; C -0.342
S6: F 0.355; P 0.162; Q 0.436; H 0.308; G 0.321; R 0.365; E 0.223; Y 0.043; D 0.125; W 0.405; C 0.398; M 0.473; K 0.49; N 0.178; A 0.427; I 0.346; T 0.38
A13: F -0.972; C 0.113; I -0.43; D -1.07; G -0.828; E -0.416; M -0.383; S -0.53; T -0.691; Y -0.505; W -0.903; K -0.402; V -0.047
A3: N 0.444; Q 0.327; R 0.222; W 0.098; L 0.362; T 0.238; M 0.363; H 0.258; E -0.049; G -0.053; V -0.08; P 0.051; C 0.172; Y -0.033; S 0.238; D -0.164; F 0.281
D7: G -0.045; T -0.073; Y 0.101; K 0.358; W -0.427; E 0.089; C -0.316; H -0.361; N -0.305; V -0.181; A -0.142; Q -0.138; M -0.153; P -0.642; F -0.616; R -0.085; S -0.477
D2: R 0.312; N 0.256; C 0.081; I 0.413; F 0.166; S 0.453; W 0.001; A 0.217; H 0.29; Y 0.197; L 0.151; G 0.411; K 0.452; E 0.41; V 0.171; P 0.252; T 0.459; Q 0.267; M 0.342
E10: N -0.024; H 0.243; A -0.178; R -0.107; F -0.073; Q -0.144; D -0.136; C -0.118; P -0.432; K -0.301; G -0.361; M -0.037; S -0.433; Y -0.244; I -0.456; T -0.121; W -0.107
D8: Q -0.25; F -0.481; M 0.014; N -0.294; E -0.076; G -0.095; L -0.491; Y -0.826; A -0.183; R -0.179; H -0.276; V -0.217; T -0.454; K -0.397; I -0.529; S -0.415; C -0.358
K14: F -0.386; P -0.573; W -0.419; I -0.19; D -0.78; S -0.492; N -0.211; Y -0.233; Q 0.048; E -0.053; H 0.468; C -0.27; R -0.195; T -0.03; L -0.159
L9: I -0.398; P -0.68; F -0.098; S -0.833; W -0.365; D -0.678; A -0.532; R -0.678; T -0.268; K -0.399; C -0.606; G -0.651; E -0.54; Q -0.355; M -0.084; V -0.095; H -0.645
E1: D 0.359; Y 0.05; Q 0.209; T 0.088; I 0.3; K 0.066; R 0.102; F 0.118; G -0.031; S 0.126; L 0.135; A -0.211; M 0.319; W 0.144; N -0.013; V 0.103; C 0.281

Variants of: B2
Assay: as above
Conditions: Homo sapiens

Abundance fitness: each site, then its substitutions
I18: H -0.902; T -0.721
Q15: G -0.6
G28: N 0.117
A35: E -0.015; H 0.001
K58: R -0.043
P23: W -0.94
T14: I -0.326
E44: M -0.493
Y7: E -0.263; S -0.404
A25: M -0.212
Q1: C -0.362
E43: A -0.085
T53: H 0.12
S40: M -0.164
K19: M 0.027
A16: H -0.09
M37: H -0.227; F -0.427; S -0.265; I -0.422
K32: M -0.198
